The values that follow come from paper PMC5983026, “Intraring allostery controls the function and assembly of a hetero-oligomeric class II chaperonin” (The FASEB Journal, 2018).

Substrate in series [1]: Nc1ncnc2c1ncn2[C@@H]1O[C@H](COP(=O)(O)OP(=O)(O)OP(=O)(O)O)[C@@H](O)[C@H]1O
Kind of series: steady-state ATPase, malachite green phosphate release. As to conditions: 55 °C, pH 7.5, 25 mM Tris-HCl, 50 mM KCl, 20 mM MgCl2, 50 mM NaCl. The format is biochemical, Thermoplasma acidophilum. The source says: steady-state ATPase, malachite green phosphate release on Ta thermosome α8β8

Series [2] concerns the molecule itself. Nature of the series: SEC + native gel or EMSA; α (intraloop His6) and β co-expressed in E. coli; complexes purified to homogeneity as in ref. 29; integrity by Superose 6 Increase SEC (main peak ≅950 kDa) and native-PAGE 3–12% (≅1 MDa); subunit composition by Tris-Acetate SDS-PAGE (7%) of the purified proteins.
Series [3] deals with the molecule itself. Kind of series: SEC + native gel or EMSA; α subunit expressed in E. coli in the absence of the β; purified α16 complex; integrity by SEC and native PAGE. A general note: In EMSA bound probe runs differently from free probe, usually more slowly.
Substrate in series [4]: Nc1ncnc2c1ncn2[C@@H]1O[C@H](COP(=O)(O)OP(=O)(O)OP(=O)(O)O)[C@@H](O)[C@H]1O
Kind of series: steady-state ATPase, malachite green phosphate release. It counts as biochemical, Thermoplasma acidophilum. To be noted: single transition, 55 °C, pH 7.5, 25 mM Tris-HCl, 50 mM KCl, 20 mM MgCl2, 50 mM NaCl. The text has this: steady-state ATPase, malachite green phosphate release on WTα16 (α-only thermosome)

The mark [5] stands for this setting: single transition, hydrolysis assigned to the WT beta subunits.
The mark [6] stands for this setting: single transition, hydrolysis on the WT alpha subunits only.

B1: Ta thermosome α8β8 (Thermoplasma acidophilum DSM 1728; P48424:D94A) (protein)
chain 1: MMTGQVPILVLKEGTQREQGKNAQRNNIEAAKAIADAVRTTLGPKGMDKMLVDSIGDIIISNDGATILKEMDVEHPTAKMIVEVSKAQDTAVGAGTTTAVVLSGELLKQAETLLDQGVHPTVISNGYRLAVNEARKIIDEIAEKSTDDATLRKIALTALSGKNTGLSNDFLADLVVKAVNAVAEVRDGKTIVDTANIKVDKKNGGSVNDTQFISGIVIDKEKVHSKMPDVVKNAKIALIDSALEIKKTEIEAKVQISDPSKIQDFLNQETNTFKQMVEKIKKSGANVVLCQKGIDDVAQHYLAKEGIYAVRRVKKSDMEKLAKATGAKIVTDLDDLTPSVLGEAETVEERKIGDDRMTFVMGCKNPKAVSILIRGGTDHVVSEVERALNDAIRVVAITKEDGKFLWGGGAVEAELAMRLAKYANSVGGREQLAIEAFAKALEIIPRTLAENAGIDPINTLIKLKAEHEKGRISVGVDLDNNGVGDMKAKGVVDPLRVKTHALESAVEVATMILRIDDVIASKKSTPPSGQGGQGQGMPGGGMPEY
chain 2: MIAGQPIFILKEGTKRESGKDAMKENIEAAIAISNSVRSSLGPRGMDKMLVDSLGDIVITNDGVTILKEMDVEHPAAKMMVEVSKTQDSFVGDGTTTAVIIAGGLLQQAQGLINQNVHPTVISEGYRMASEEAKRVIDEISTKIGADEKALLLKMAQTSLNSKSASVAKDKLAEISYEAVKSVAELRDGKYYVDFDNIQVVKKQGGAIDDTQLINGIIVDKEKVHPGMPDVVKDAKIALLDAPLEIKKPEFDTNLRIEDPSMIQKFLAQEENMLREMVDKIKSVGANVVITQKGIDDMAQHYLSRAGIYAVRRVKKSDMDKLAKATGASIVSTIDEISSSDLGTAERVEQVKVGEDYMTFVTGCKNPKAVSILVRGETEHVVDEMERSITDSLHVVASALEDGAYAAGGGATAAEIAFRLRSYAQKIGGRQQLAIEKFADAIEEIPRALAENAGLDPIDILLKLRAEHAKGNKTYGINVFTGEIEDMVKNGVIEPIRVGKQAIESATEAAIMILRIDDVIATKSSSSSSNPPKSGSSSESSED
notes: recombinant co-expression in E. coli BL21(DE3) Codon Plus-RIL, construct aK144HTTherm, intraloop His6-tag in each alpha subunit (kept), hexadecamer isolated on Superose 6, about 1 MDa
A word on the Km: it is the concentration of substrate that gives half-maximal velocity. In the case of B1, in series [1] (setting [5]), the Km is on record as 82 ± 8.7 µM and the kcat is 2.4 ± 0.09 mol ATP/(mol active sites × min).

B2: Ta thermosome α8β8 (Thermoplasma acidophilum DSM 1728; P48425:D93K) (protein)
chain 1: MMTGQVPILVLKEGTQREQGKNAQRNNIEAAKAIADAVRTTLGPKGMDKMLVDSIGDIIISNDGATILKEMDVEHPTAKMIVEVSKAQDTAVGDGTTTAVVLSGELLKQAETLLDQGVHPTVISNGYRLAVNEARKIIDEIAEKSTDDATLRKIALTALSGKNTGLSNDFLADLVVKAVNAVAEVRDGKTIVDTANIKVDKKNGGSVNDTQFISGIVIDKEKVHSKMPDVVKNAKIALIDSALEIKKTEIEAKVQISDPSKIQDFLNQETNTFKQMVEKIKKSGANVVLCQKGIDDVAQHYLAKEGIYAVRRVKKSDMEKLAKATGAKIVTDLDDLTPSVLGEAETVEERKIGDDRMTFVMGCKNPKAVSILIRGGTDHVVSEVERALNDAIRVVAITKEDGKFLWGGGAVEAELAMRLAKYANSVGGREQLAIEAFAKALEIIPRTLAENAGIDPINTLIKLKAEHEKGRISVGVDLDNNGVGDMKAKGVVDPLRVKTHALESAVEVATMILRIDDVIASKKSTPPSGQGGQGQGMPGGGMPEY
chain 2: MIAGQPIFILKEGTKRESGKDAMKENIEAAIAISNSVRSSLGPRGMDKMLVDSLGDIVITNDGVTILKEMDVEHPAAKMMVEVSKTQDSFVGKGTTTAVIIAGGLLQQAQGLINQNVHPTVISEGYRMASEEAKRVIDEISTKIGADEKALLLKMAQTSLNSKSASVAKDKLAEISYEAVKSVAELRDGKYYVDFDNIQVVKKQGGAIDDTQLINGIIVDKEKVHPGMPDVVKDAKIALLDAPLEIKKPEFDTNLRIEDPSMIQKFLAQEENMLREMVDKIKSVGANVVITQKGIDDMAQHYLSRAGIYAVRRVKKSDMDKLAKATGASIVSTIDEISSSDLGTAERVEQVKVGEDYMTFVTGCKNPKAVSILVRGETEHVVDEMERSITDSLHVVASALEDGAYAAGGGATAAEIAFRLRSYAQKIGGRQQLAIEKFADAIEEIPRALAENAGLDPIDILLKLRAEHAKGNKTYGINVFTGEIEDMVKNGVIEPIRVGKQAIESATEAAIMILRIDDVIATKSSSSSSNPPKSGSSSESSED
notes: as for B1
Turning to B2, in series [1] (setting [6]), the Km came to 285 ± 35 µM and the kcat was 1.7 ± 0.14 mol ATP/(mol active sites × min).

B3: Thermoplasma acidophilum thermosome α subunit D94K, with intraloop His6-tag (natural protein)
chain: MMTGQVPILVLKEGTQREQGKNAQRNNIEAAKAIADAVRTTLGPKGMDKMLVDSIGDIIISNDGATILKEMDVEHPTAKMIVEVSKAQDTAVGKGTTTAVVLSGELLKQAETLLDQGVHPTVISNGYRLAVNEARKIIDEIAEKSTDDATLRKIALTALSGKNTGLSNDFLADLVVKAVNAVAEVRDGKTIVDTANIKVDKKNGGSVNDTQFISGIVIDKEKVHSKMPDVVKNAKIALIDSALEIKKTEIEAKVQISDPSKIQDFLNQETNTFKQMVEKIKKSGANVVLCQKGIDDVAQHYLAKEGIYAVRRVKKSDMEKLAKATGAKIVTDLDDLTPSVLGEAETVEERKIGDDRMTFVMGCKNPKAVSILIRGGTDHVVSEVERALNDAIRVVAITKEDGKFLWGGGAVEAELAMRLAKYANSVGGREQLAIEAFAKALEIIPRTLAENAGIDPINTLIKLKAEHEKGRISVGVDLDNNGVGDMKAKGVVDPLRVKTHALESAVEVATMILRIDDVIASKKSTPPSGQGGQGQGMPGGGMPEY
notes: Thermoplasma acidophilum thermosome α subunit, NCBI CAC12109; site-directed mutant of construct aK144HTTherm; also called D94Kα; not shown: His6, internal (intraloop), kept
As usually defined, the stoichiometry N is a count of units in the complex or per binding partner. Turning to B3, the “stoichiometry N” value in series [2] turned out to be 16.

B4: Ta thermosome α8β8 (Thermoplasma acidophilum DSM 1728) (protein)
chain 1: MMTGQVPILVLKEGTQREQGKNAQRNNIEAAKAIADAVRTTLGPKGMDKMLVDSIGDIIISNDGATILKEMDVEHPTAKMIVEVSKAQDTAVGDGTTTAVVLSGELLKQAETLLDQGVHPTVISNGYRLAVNEARKIIDEIAEKSTDDATLRKIALTALSGKNTGLSNDFLADLVVKAVNAVAEVRDGKTIVDTANIKVDKKNGGSVNDTQFISGIVIDKEKVHSKMPDVVKNAKIALIDSALEIKKTEIEAKVQISDPSKIQDFLNQETNTFKQMVEKIKKSGANVVLCQKGIDDVAQHYLAKEGIYAVRRVKKSDMEKLAKATGAKIVTDLDDLTPSVLGEAETVEERKIGDDRMTFVMGCKNPKAVSILIRGGTDHVVSEVERALNDAIRVVAITKEDGKFLWGGGAVEAELAMRLAKYANSVGGREQLAIEAFAKALEIIPRTLAENAGIDPINTLIKLKAEHEKGRISVGVDLDNNGVGDMKAKGVVDPLRVKTHALESAVEVATMILRIDDVIASKKSTPPSGQGGQGQGMPGGGMPEY
chain 2: MIAGQPIFILKEGTKRESGKDAMKENIEAAIAISNSVRSSLGPRGMDKMLVDSLGDIVITNDGVTILKEMDVEHPAAKMMVEVSKTQDSFVGDGTTTAVIIAGGLLQQAQGLINQNVHPTVISEGYRMASEEAKRVIDEISTKIGADEKALLLKMAQTSLNSKSASVAKDKLAEISYEAVKSVAELRDGKYYVDFDNIQVVKKQGGAIDDTQLINGIIVDKEKVHPGMPDVVKDAKIALLDAPLEIKKPEFDTNLRIEDPSMIQKFLAQEENMLREMVDKIKSVGANVVITQKGIDDMAQHYLSRAGIYAVRRVKKSDMDKLAKATGASIVSTIDEISSSDLGTAERVEQVKVGEDYMTFVTGCKNPKAVSILVRGETEHVVDEMERSITDSLHVVASALEDGAYAAGGGATAAEIAFRLRSYAQKIGGRQQLAIEKFADAIEEIPRALAENAGLDPIDILLKLRAEHAKGNKTYGINVFTGEIEDMVKNGVIEPIRVGKQAIESATEAAIMILRIDDVIATKSSSSSSNPPKSGSSSESSED
notes: as for B1
With B4, in series [1] (biphasic, tight site), the Michaelis-Menten constant (Km) is recorded as 15 ± 1.65 µM and the kcat is listed as 2.15 ± 0.12 mol ATP/(mol active sites × min).

B5: Thermoplasma acidophilum thermosome α subunit, wild type, with intraloop His6-tag (natural protein)
chain: MMTGQVPILVLKEGTQREQGKNAQRNNIEAAKAIADAVRTTLGPKGMDKMLVDSIGDIIISNDGATILKEMDVEHPTAKMIVEVSKAQDTAVGDGTTTAVVLSGELLKQAETLLDQGVHPTVISNGYRLAVNEARKIIDEIAEKSTDDATLRKIALTALSGKNTGLSNDFLADLVVKAVNAVAEVRDGKTIVDTANIKVDKKNGGSVNDTQFISGIVIDKEKVHSKMPDVVKNAKIALIDSALEIKKTEIEAKVQISDPSKIQDFLNQETNTFKQMVEKIKKSGANVVLCQKGIDDVAQHYLAKEGIYAVRRVKKSDMEKLAKATGAKIVTDLDDLTPSVLGEAETVEERKIGDDRMTFVMGCKNPKAVSILIRGGTDHVVSEVERALNDAIRVVAITKEDGKFLWGGGAVEAELAMRLAKYANSVGGREQLAIEAFAKALEIIPRTLAENAGIDPINTLIKLKAEHEKGRISVGVDLDNNGVGDMKAKGVVDPLRVKTHALESAVEVATMILRIDDVIASKKSTPPSGQGGQGQGMPGGGMPEY
notes: Thermoplasma acidophilum thermosome α subunit, NCBI CAC12109; also called WTα; weak subunit; not shown: His6, internal (intraloop), kept
Take B5: the “stoichiometry N” value in series [3] turned out to be 16. The “stoichiometry N” value in series [2] is 16. Moreover, in series [4], the Michaelis-Menten constant (Km) stood at 140 ± 15.7 µM and the kcat is 0.33 ± 0.015 mol ATP/(mol active sites × min).

B6: Thermoplasma acidophilum thermosome α subunit T97V, with intraloop His6-tag (natural protein)
chain: MMTGQVPILVLKEGTQREQGKNAQRNNIEAAKAIADAVRTTLGPKGMDKMLVDSIGDIIISNDGATILKEMDVEHPTAKMIVEVSKAQDTAVGDGTVTAVVLSGELLKQAETLLDQGVHPTVISNGYRLAVNEARKIIDEIAEKSTDDATLRKIALTALSGKNTGLSNDFLADLVVKAVNAVAEVRDGKTIVDTANIKVDKKNGGSVNDTQFISGIVIDKEKVHSKMPDVVKNAKIALIDSALEIKKTEIEAKVQISDPSKIQDFLNQETNTFKQMVEKIKKSGANVVLCQKGIDDVAQHYLAKEGIYAVRRVKKSDMEKLAKATGAKIVTDLDDLTPSVLGEAETVEERKIGDDRMTFVMGCKNPKAVSILIRGGTDHVVSEVERALNDAIRVVAITKEDGKFLWGGGAVEAELAMRLAKYANSVGGREQLAIEAFAKALEIIPRTLAENAGIDPINTLIKLKAEHEKGRISVGVDLDNNGVGDMKAKGVVDPLRVKTHALESAVEVATMILRIDDVIASKKSTPPSGQGGQGQGMPGGGMPEY
notes: Thermoplasma acidophilum thermosome α subunit, NCBI CAC12109; site-directed mutant of construct aK144HTTherm; also called T97Vα; not shown: His6, internal (intraloop), kept
For the protein B6, the “stoichiometry N” value in series [2] amounted to 16.
